The numbers were not newly measured in PMC3061301, which cites them from elsewhere.

The data set deals with PTP-BL (Mus musculus) (UniProt Q64512). Kind of data set: surface plasmon resonance. (SPR reads the build-up and loss of mass on a sensor chip optically.)
Chain of UniProt Q64512 (Q64512 whole entry): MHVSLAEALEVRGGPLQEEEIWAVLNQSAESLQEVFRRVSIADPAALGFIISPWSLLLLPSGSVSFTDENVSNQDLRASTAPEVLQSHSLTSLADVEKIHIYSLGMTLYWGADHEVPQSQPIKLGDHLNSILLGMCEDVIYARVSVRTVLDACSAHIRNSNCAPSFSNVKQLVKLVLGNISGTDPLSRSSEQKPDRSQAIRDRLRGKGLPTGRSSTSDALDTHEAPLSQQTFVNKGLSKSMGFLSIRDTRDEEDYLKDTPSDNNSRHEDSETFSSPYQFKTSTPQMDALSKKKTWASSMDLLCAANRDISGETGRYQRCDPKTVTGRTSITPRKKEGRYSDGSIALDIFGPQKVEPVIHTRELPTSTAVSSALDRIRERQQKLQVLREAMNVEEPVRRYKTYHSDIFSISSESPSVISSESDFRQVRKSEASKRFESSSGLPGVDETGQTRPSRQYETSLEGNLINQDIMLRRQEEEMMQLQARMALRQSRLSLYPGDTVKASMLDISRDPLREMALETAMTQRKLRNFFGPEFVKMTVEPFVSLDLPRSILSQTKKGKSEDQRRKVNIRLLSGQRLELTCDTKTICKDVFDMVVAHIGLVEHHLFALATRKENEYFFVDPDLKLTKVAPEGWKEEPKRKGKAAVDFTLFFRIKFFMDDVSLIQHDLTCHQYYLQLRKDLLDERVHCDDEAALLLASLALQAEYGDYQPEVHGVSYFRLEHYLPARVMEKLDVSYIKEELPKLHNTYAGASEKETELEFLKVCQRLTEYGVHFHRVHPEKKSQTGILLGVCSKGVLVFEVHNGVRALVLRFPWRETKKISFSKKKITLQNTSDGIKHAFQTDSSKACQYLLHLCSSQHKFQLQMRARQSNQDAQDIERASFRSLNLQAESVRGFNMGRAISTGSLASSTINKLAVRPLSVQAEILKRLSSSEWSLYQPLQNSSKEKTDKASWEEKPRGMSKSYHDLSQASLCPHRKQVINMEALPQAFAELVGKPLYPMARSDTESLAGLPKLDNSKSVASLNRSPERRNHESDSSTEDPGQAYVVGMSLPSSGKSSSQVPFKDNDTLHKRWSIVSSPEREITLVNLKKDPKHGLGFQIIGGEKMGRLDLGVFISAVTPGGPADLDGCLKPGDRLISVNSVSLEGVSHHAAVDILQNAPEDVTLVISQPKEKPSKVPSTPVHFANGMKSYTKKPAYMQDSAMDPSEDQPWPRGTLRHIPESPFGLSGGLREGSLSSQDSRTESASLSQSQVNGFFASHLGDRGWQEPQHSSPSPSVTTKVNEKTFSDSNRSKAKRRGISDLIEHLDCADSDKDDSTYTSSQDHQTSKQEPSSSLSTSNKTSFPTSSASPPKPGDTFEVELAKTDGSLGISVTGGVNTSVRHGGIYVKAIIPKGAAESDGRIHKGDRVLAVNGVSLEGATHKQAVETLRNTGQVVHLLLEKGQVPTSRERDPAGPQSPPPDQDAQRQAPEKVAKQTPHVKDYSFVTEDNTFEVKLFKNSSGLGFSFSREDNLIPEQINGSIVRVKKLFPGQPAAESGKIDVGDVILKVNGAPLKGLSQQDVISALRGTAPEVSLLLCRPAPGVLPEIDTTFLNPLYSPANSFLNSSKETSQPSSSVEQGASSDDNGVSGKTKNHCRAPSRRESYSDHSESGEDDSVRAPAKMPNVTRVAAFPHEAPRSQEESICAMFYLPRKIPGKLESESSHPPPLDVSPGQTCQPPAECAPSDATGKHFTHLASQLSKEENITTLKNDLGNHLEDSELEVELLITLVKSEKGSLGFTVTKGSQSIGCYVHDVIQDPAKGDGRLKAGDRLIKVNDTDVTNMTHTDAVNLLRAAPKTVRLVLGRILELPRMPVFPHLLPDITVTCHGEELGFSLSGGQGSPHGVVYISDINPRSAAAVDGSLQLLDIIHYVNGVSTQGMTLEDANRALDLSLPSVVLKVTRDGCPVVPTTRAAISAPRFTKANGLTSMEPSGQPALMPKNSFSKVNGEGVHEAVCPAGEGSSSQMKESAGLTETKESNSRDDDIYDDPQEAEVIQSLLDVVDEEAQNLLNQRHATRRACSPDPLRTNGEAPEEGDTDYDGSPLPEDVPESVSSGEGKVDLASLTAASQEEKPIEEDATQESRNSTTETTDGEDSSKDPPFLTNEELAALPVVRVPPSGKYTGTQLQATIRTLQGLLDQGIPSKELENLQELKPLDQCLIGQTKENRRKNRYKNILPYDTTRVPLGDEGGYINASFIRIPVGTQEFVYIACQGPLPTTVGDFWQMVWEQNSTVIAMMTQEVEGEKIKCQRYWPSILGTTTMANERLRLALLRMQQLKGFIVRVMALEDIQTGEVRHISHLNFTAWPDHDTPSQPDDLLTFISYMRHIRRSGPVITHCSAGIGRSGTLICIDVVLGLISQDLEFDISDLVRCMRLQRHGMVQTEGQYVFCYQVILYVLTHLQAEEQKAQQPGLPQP

What is called Kd is the free concentration of one partner at which half of the binding sites on the other are occupied at equilibrium, for simple one-to-one binding. For the substance “APC C-terminal 19 amino acids (from UniProt P25054)”, the Kd was 8 nM.
